The target of assay [1] is H3N2 A/Singapore/INFIMH-16-0019/2016 (H3/Sing16) HA (influenza A virus H3N2 A/Singapore/INFIMH-16-0019/2016). Put plainly: BLI. On the technique in general: In BLI a coated tip is dipped into the sample, and binding shifts an interference pattern.
Assay [2] deals with influenza B/Lee/1940 (B/Lee40) HA (influenza B virus B/Lee/1940). In words: BLI.

Usually Kd stands for a measure of binding affinity in units of concentration. Read a low Kd as a tighter complex.

influenza B/Lee/1940 (B/Lee40) HA (influenza B virus B/Lee/1940), sequence (P03460 16-552 limits assumed): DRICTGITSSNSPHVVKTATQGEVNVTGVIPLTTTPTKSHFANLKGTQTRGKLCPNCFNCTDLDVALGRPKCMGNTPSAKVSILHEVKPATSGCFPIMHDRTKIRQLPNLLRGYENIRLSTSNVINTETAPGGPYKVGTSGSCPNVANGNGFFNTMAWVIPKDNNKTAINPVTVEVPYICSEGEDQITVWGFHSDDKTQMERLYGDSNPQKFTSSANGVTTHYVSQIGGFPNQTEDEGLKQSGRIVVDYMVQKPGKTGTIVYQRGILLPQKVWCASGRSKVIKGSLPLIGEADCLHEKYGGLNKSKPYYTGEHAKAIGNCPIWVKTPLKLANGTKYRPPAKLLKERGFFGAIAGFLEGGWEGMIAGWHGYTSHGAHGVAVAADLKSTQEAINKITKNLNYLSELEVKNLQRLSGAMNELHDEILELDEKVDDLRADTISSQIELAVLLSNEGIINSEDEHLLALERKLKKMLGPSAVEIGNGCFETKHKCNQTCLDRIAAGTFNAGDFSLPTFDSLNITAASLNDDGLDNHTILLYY

Turning to somatic CR9114 Fab, the Kd amounted to 36 nM in assay [1] and 110 nM in assay [2].

The record behind these values is article PMC13638050.
